The source of these data is patent US12708677B2, “Contrast agents, methods for preparing contrast agents, and methods of imaging” (Georgia State University Research Foundation, Inc., priority 2008, dated 2026).

Data set [1] is described as follows: Mg^2+ binding constant, competition assays. The source says: (§1) Since metal selectivity for Gd^3+ over other physiological metal ions is for minimizing the toxicity of the agents,^39, 40 we measured metal binding constants using dye-competition assays with various chelate-metal buffer systems (Table 1). Low limit metal binding affinities of the proteins were also estimated based on Tb^3+-sensitized FRET and competition assays. […] This is considered for in vivo applications of the contrast agent as the phosphate concentration in serum is maintained at ~1.3 mM.^6, 9 The stability of a contrast agent in blood circulation is another factor for in vivo applications. We characterized the stability by incubating Gd-CA1.CD2 with 75% human serum at 37° C. for 3 and 6 hours.

Data set [2] in a line: Dynamic NMR, rotational correlation time and S^2 order. The format is physicochemical. The protocol: Therefore, the measured correlation time of the protein directly reflects the τR of the metal binding site. In contrast, the flexible metal binding loop in CA9.CD2 has an S^2 order value of 0.3-0.4, which is very different from CA1.CD2 with an S^2 value very close to that of the backbone of the protein.
Pulse field diffusion NMR was applied to measure the hydrodynamic radii of the protein (Lee et al., BBA 2003) with Protein samples CA1.CD2 and its variants of 0.2 mM in buffer, Lysozme and diaxone were used as an external and internal reference for calibration. The correlation size of the protein was measured using TauC pulse sequence developed by the Prestegard lab at UGA using ^15N labeled protein.

Data set [3] concerns AU565 cells. The data set is described as follows: Cell binding by immuno-fluorescence staining. The format is cell-based. As to conditions: 37 and 4° C. From the text: (§2) We first examined whether the designed CA1.HER2/Affi can target cancer cells by cell binding analyses. We used two cancer cell lines for the binding analyses. AU565 is derived from breast carcinoma. EMT6 is a mouse mammary tumor cell line. AU565 cells express very high levels of HER2. The EMT is regarded as a HER2 negative cell line. Binding of the Gd-CA1.HER2/Affi to the cancer cells was first analyzed by immuno-fluorescence staining using a polyclonal antibody against PEGylated parental protein CA1.CD2 (PAbPGCA1).

The subject of data set [4] is rabbits. The data set is described as follows: Immunogenicity in rabbits, ELISA and immunoblotting. The class given is in vivo, rabbit. The protocol: FIG. 2.7: Illustrates ELISA (left) or western blot (right) analyses of antibody produced in rabbit serum after i.p. injection of […] of protein CA1.CD2 or PEGylated CA1.CD2 (PEGCA1.CD2). In (left), Pre is the serum from pre-bleeding before antigen injection. CA1.CD2 was mixed with adjuvant (CA1.CD2+Ad) or with buffer saline (CA1.CD2+Sal) before injection. PabCD2 is the anti-serum from rabbits produced by a commercial source use CD2 as antigen. The open bars are the first bleed after first injection. The gray bars are the second bleed after second injection. The rabbit blood was taken 3 weeks after each injection. The error bars are standard deviations of four measurements. In (right), Western blots were performed with anti-serum (1st bleed) from rabbits that were injected; CA1.CD2 mixed with buffered saline (left panel, CA1.CD2+Sal), CA1.CD2 mixed with adjuvant (middle panel, CA1.CD2+Ad), and the PEGylated CA1.CD2 (right panel, PEG-CA1.CD2). The Western blots experiments were carried out with 0.5 mg of PEGylated CA1.CD2 (PEG-CA1.CD2) or unmodified CA1.CD2 (CA1.CD2). Arrow indicates the position of the detected protein bands 19 hours post injection.
Rabbits were i.p. injected with Gd-CA1.CD2 and its pegylated variants. The agents (CA1.CD2) were mixed with adjuvant or with buffer saline and injected at a dose of 3.0 nmole/kg according to the standard protocol for the antibody production. […]

The nature of data set [5]: Ca^2+ binding constant, dye competition / Tb^3+ FRET competition.
Excerpt: as §1
Metal binding affinity for Ca^2+ and Zn^2+ were determined using similar competition methods and specific dyes with proper Kd values.

Data set [6] relates to EMT6 cells. The data set is described as follows: Cell binding by immuno-fluorescence staining. The class given is cell-based, mouse.
Excerpt: as §2

The nature of data set [7]: Protein solubility by concentrating to precipitation. As to conditions: current formulation. The format is physicochemical. The protocol: Protein was expressed in E. coli as inclusion body and purified using urea refolding and ion-exchange column. N15 labeled protein was expressed in SV medium as GST fusion (Yang et al., Biochem 2006) and purification was by GST-4B affinity column and SP column. Protein was verified by mass spectrometry. Protein concentration was calculated using extinction coefficient of w.t. CD2 of 11,000 (Ye et al., 2001). Protein solubility was determined by concentrating proteins to reach to precipitation using speed vac.

For data set [8], the system named is SKOV3. Nature of the data set: MR imaging of cancer cell pellets. The format is cell-based. The protocol:
(§3) To test whether our designed proteins are applicable for targeted imaging, we carried out MR imaging of cancer cells that were incubated with the designed protein contrast agents Gd-CA1-Affi using four different cancer cell lines with different expression levels of HER2. […] The MR image contrast enhancements from the contrast agent can be correlated to the HER2 levels.

Data set [9] relates to AU565. Nature of the data set: MR imaging of cancer cell pellets. The class given is cell-based. On the procedure: as §3

B1: CA1.CD2: designed Gd^3+-binding protein, domain 1 of rat CD2 with ligand residues Glu15, Glu56, Asp58, Asp62, Asp64 (protein)
chain: RDSGTVWGALGHGIELNIPNFQMTDDIDEVRWERGSTLVAEFKRKMKPFLKSGAFEIDANGDLDIKNLTRDDSGTYNVTVYSTNGTRILNKALDLRILE
Regarding B1, in [1], the “Metal binding constant (Log Ka) Mg^2+” value is on record as <2.0 and the “disassociation constant (Kd) for Mg^2+” value was > 10 mM. Also, the “Log (KGd/KMg)” value in data set [1] (metal selectivity) is on record as >10.06. The molecule also registered an overall correlation time in [2] (absence of bound metal ions) of 9.20 ns. For the same molecule, the overall correlation time in data set [2] (presence of bound metal ions) is 9.08 ns. In addition, the “binding to AU565 cells” value in data set [3] was “did not bind to either of the tested cultured cells”. Besides, in [4] (with adjuvant), the antibody production result is reported as “resulted in immuno-responses”. Also, the antibody production result in data set [4] (without adjuvant, double dose immunization, 3.0 nmole/kg i.p.) is listed as “did not lead to antibody production”. In data set [5], the “Metal binding constant (Log Ka) Ca^2+” value was <2.22 and the “disassociation constant (Kd) for Ca^2+” value is ≥ 6 mM. Further, in data set [5] (metal selectivity), the “Log (KGd/KCa)” value was >9.84. The “binding to EMT6 cells” value in data set [6] is “did not bind to either of the tested cultured cells”. In addition, in [7], the solubility is recorded as ~ 0.7 mM.

B2: Gd-CA1.CD2: CA1.CD2 in complex with Gd^3+ (protein)
chain: B1 chain
For B2, the “MR image of SKOV3 cell pellets” value in [8] is “no significant changes in MR image”. In addition, the “MR image of AU565 cell pellets” value in data set [9] is “no significant changes in MR image”.
